Experimental data taken from the nanobody polyreactivity screen of Harvey et al. (2022).

Experiment: yeast display, Sf9 membrane polyspecificity reagent, FACS + sequencing; frameworks hold sequencing errors
Summary of the method: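 Galactose-induced (36–48 hours) yeast carrying a synthetic nanobody display library were exposed to 10% biotinylated, detergent-solubilized Sf9 membrane reagent at 4 °C for 1 hour. FACS followed streptavidin microbead enrichment, using low and high (top ~1%) gates for expression (anti-HA) and reagent binding (streptavidin). Colony PCR, MiSeq 2 × 250 sequencing and CDR-length filtering followed. Labels for polyreactivity reflect the gate of origin.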

Sequence	polyreactivity (PSR sort gate)
QVQLVESGGGLVQAGGSLRLSCAASGSTFANYAMGWYRQAPGKERELVAGISWRGGRTYYADSVKGRFTISRDNAKNTVYLQMNSLKPEDTAVYYCAAEVLKTRWSYDYWGQGTQVTVSS	high polyreactivity
QVQLVESGGGLVQAGGSLRLSGAASGRTFGVYVMGWYRQAPGKERELVAAIDDSGGSTYYADSVKGRFTISRDNAKNTVYLQMNSLKPEDTAVYYCAADFYVVYWGTYSVGYDYWGQGTQVTVSS	low polyreactivity
QVQLVESGGGLVQAGGSLRLSCAASGPIFVHNAKGWYRQAPGTERELVAAISWRATRTYYADSVKGRFTISRDNAKNTVYLQMNSLKPEDTAVYYCAAVTPAYSTSTSSYDYWGQGTQVTVSS	high polyreactivity
QVQLVESGGGLVQAGGSLRLSCAASGLIFGRYTMGWYRQAPGKEREFVAAISRSGGSTYYADSVKGRFTISRDNAKITVYLQRNSLKPEDTAVYYCAARGSYTRPKRYGYWGQGTQVTVSS	high polyreactivity
QVQLVESGGGLVQAGGSLRLSCAASGSIFTPYAMGRYRQAPGKERELVAAISRSGGRTYYADSVKGRFTISRDNAKNTVYLQMNSLKPEDTAVYYCNAGAGQRVSGHSFEYWGQGTQVTVSS	high polyreactivity
QVQLVESGGGLVQAGGSLRLSCAASGNNFRSYAMGWYRQATGKERELVAAISGRGGSTYYADSVKGRFTISRDNAKNTVYLQMNSLKPEDTAVYYCAAESRRVNYANDYWGQGTQVTVSS	high polyreactivity
QVQLVESGGGLVQAGGSLLLSCAASGSTCSYYAMGWYRQAPGKERQLVAAINRSGGSTYYADSVMGRFTISRDNAKNTVYVQMNSLKPEDTAVYSCAALRSKTVSYDRYDYWGQGTQVTVSS	high polyreactivity
QLQLVESGPGLVQAGGSLRLSCAPSGSTFNRNAMGCYSQAPGKERELVAVISSGGSTYYADSVKGRFTISRDIAKNTVYLQMNSLKPEDTAVYYCAAGDPQKEDYWGQGTQVTVSS	low polyreactivity
QVQLVESGGGLVQAGGSLRLSCAASGSTFVSYAMGWYRQAPGKERELVAAISTSGGTTYYADSVKGRFTISRDNAKNTVYLQMNSLKPEDTAVYYCAAYDFKYKGYDYWGQGTQVTVSS	high polyreactivity
QVQLVESGGGLVQARGSLRLSCAASGIIFKGYAMGWYRQAPGKERELVAGITRYGGGTYYADSVKGRFTISRDNAMNTVYLQMNRLKPEDTAVYYCAAVRIARAVQDYDYWGQGTQVTVSS	high polyreactivity
QVQLVESGGGLVQAGGSLRLSCAASGSIFISNAMGWYRQAPGKERELVAAITSSGGSTYYADSVKGRFTISRDNAKNTVYLQMNSLKPEDTAVYYCAARPGRNYYYWGQGTQVTVSS	high polyreactivity
QVQLVESGGGLVQAGGSLRLSCAASGSTSYRYAMGWYRQAPGKQRELVAGITRSGGSTYYADSVKGRFTMSRDNAKNSVYLQMNSLKPEDTAVYYCAAYYSRQYVGYGYWGQGTQVTVSS	high polyreactivity
QVQLVESGGGLVQAGGSLRLICAASGSIFRYYAMGWYRQAHGKERELLAAISYSGGSTYYADSVKGRFTISRDNAKNTVYLQMNSLKPEDTAVYYCAKGRHTTRASIAFNYWGQGTQVTVSS	high polyreactivity
QVQLVESGGGLVQAGGSLRLSCAASGSIVNYYAMGWYRPAPGKERELVAAITSGGSTYYADSVKGRFTISRDNAKNTVYLQMNSLKAEDTAVYYCNKAFPYIYDYWGQGTQVTVSS	low polyreactivity
QVQLVESGGGLVQSGGSLRLSCAASGSIFDFYVMGWYRQAPGKERELVAAITWSDGSTYYADSVKGRFTISRDNAKNTVYLQMNSLKPEDTAVYYCNAGYFPLLGYPADAIGYDYWGQGTQVTVSS	low polyreactivity
QVQLVESRGGLVQAGGSLRLSCAASGFTFPFYAMGSYRQAPGKERELVAAISISGGSTHYADSVKGRFTISRDNAKNTVYLQMNSLKPEDTAVYYCAAEYGVVIYIDGWYPTLHEYYYSGQGTQVTVSS	high polyreactivity
QVQLVESGGGLVQAGGSLRLSCAASGSTIEPNAMGWYRPAPGKERELVAAINYSGGRTYYADSVKGRFTISRDNAKNTVYLQMNSLKPEDTAVYYCAATSIGRYKSRLDYWGQGTQVTVSS	high polyreactivity
QVQLVESGGGLVQAGGSLRLSCAASGRIFYRYAMGWYRQAPGKERELVAAIRYSGGRTYYADSVKGRFTISRDNAKNTVYLQMNSLKPEDTAVYYCAADGQWYYAPFRGGDYENDYWGQGTQVTVSS	low polyreactivity
QDQLVESGGGLVQAGGSLRLSCAASGSIFPYNAMGWYRQAPGKERELVATISSGGSTNYADSVKGRFTISRDNAKNTVYLQMNSLKPEDTAVYYCAAVVIVFYYAPNYWGDIEYGYWGQGTQVTVSS	low polyreactivity
QVQLVESGGGLVHAGASLRLSCAASGLTFRKYAKGWYRQAPGKERELVAAITGSGGRTYYADSVKGRFTISRDNAKNTVYLQMNSLQPEDTAVYYCAADDYFHDDYWGQGTQVTVSS	high polyreactivity
QVQLVESGGGLVQAGGSLRLSCAASGFIFRYYAMGWYRQAPGKERELVAAISSRGSTYYADSVKGRFTISRDNAKNTVYLQMNRLKPEYTALYYCAARGGYRLRYIPYVRYDYWGQGTQLTVSS	high polyreactivity
QVQLVESGGGLVQAGGSLRLSCAASGFIFSSYAMGWYRQAPGKERELVAAITSGGSTNYADSVKGRFTISRDNAKNTVYLQMNSLKPEDTAVYYCATVPGRSWFFHWWSTGGDDEYWGQGTQVTVSS	low polyreactivity

Sequence	polyreactivity (PSR sort gate)
QVQLVESGGGLVQEGGSLRLICAASGRTLYHYVMGWYSQAPGKERELVAAISSGGSTYYADSVKGRFTISRDNAKNTVYLQMNSLKPEDTAVYFCAAGRRGDWGQGTQVTVSS	high polyreactivity
PVQLVESGGGLVQAGGSHRLSCAASGITFGVYPMGWYRQAAGKERELVAAISRRGASTYYADSVKGRFTISRDKAKNSVYLQMNSLKPEDTAVYYCAAYLARRQYDYWGQGTQVTVSS	high polyreactivity
QVQLVESGGGLVQAGGSLRLSFAASGNTFVSNAMGWYRQAPGKERELVAAISGRGGRTYYADSVKGRFTISRDIAKDTVYLQMNSLKPEDTAVYYCDADQYKDFDYWGQGTLVTVSS	low polyreactivity
QFQLVESGGGLVQAGGSLRLRCAASGQTFRYYAMGWYRQAPGKERELVAAITRRGSTYYADSVKGRFTISRDNAKNTVNLQINSLKPEDTAVYYCATVTGFHSSPLRDLDYWGQGTQVTVSS	high polyreactivity
QVQLVESGGGLVQAVGSLRLSCAASGSTFKRNAMGWYRQAPGKERELVAAITSGGSTYYADSVKGRFTISRDNAKNTVYLQMNSLKPEVTAVYYCNKVPYLKLKMDYWGQGTQVTVSS	high polyreactivity
QVQLVESGGGLVQAGGSLRLSCAASGSTFGYYTMGWYRQEPGKERELVAAITWSGGSTYFEDSVKGRFTISRDNAKNTVYLQMNSLKPEDTAVYYCAADYYWTPFGYWGQGTLVTVSS	low polyreactivity
QVQLVESGGGLVQAGGSLRLSCAASGFIFRRNAMGWYRPAPGKERELVAAITKSGGSTYYADSVKGRFTISRDNAKNTVYLQMNSLKPEDTAVYYCAAPYSAKELYYRMDYWGQGTQVTVSS	high polyreactivity
QVQLVESGGGLVQAGGSLRLICAASGSTFSYYTIGWYRTAPGKEMELVATISRRGASTYYADSVKGRFTISLDNAKNTVYLQMNSLKPEDTAVYYCAKSYYYGRSATRPEYDYWGQGTQVTVSS	high polyreactivity
QVQLVESAGGLVQAGGSLRLSCAASGSTFSRYAMGWSRQAPGNERELVAAISSGGNTYDADSVKGRFTISRDNAKNTVYLQMNSLKPEDTPVYYCIADRYTWYPWTKCFYYWGQGTHVTVSS	high polyreactivity
QVQLVESGGGLVQAGGSLRLSCAASGSTFNRYAMGWYRQAPGKERELVASISWGGGRTYYADSVKGRFTISRDNAKNTVYLQMNSLKPEDTAVYYCATDRYYRHYEVDYWGQGTQVTVSS	low polyreactivity
QVQLVESGGGFVHAGGSLRLSCAASGLIFGKYAMGWYRQAPGKERELVAAITSSGGGTYYADSVKGRFTISRDNAKNTVSLQMNSVKADDTAVYYCATGPDPKYDYRGQGTQVTVSS	high polyreactivity
QVQLVESGGGLVQAGGSLRLSFAASGRTFYSYAMGWYRQAPGKETQLVASITSTGSTYYADSVKGRFTISRDNAKNTVYLQMNSLKPEDTAVYYCAARRQPRYSQRSTYYYWGQGTQVTVSS	high polyreactivity
QVQLVESGGGLVQAGGSLRLSCAASGNHLRSLCLGWYRQAPGKERELVAAITSSGASTYYADSVKGRFTISRDNAKNTVYLQMNSLKPEDTAVYYCAAYLFRRYDYWGQGTQVTVSS	low polyreactivity
QVQLVESGGGLVQAGGSLRLSCAASGFTFAYYAMGWYRQAPGKERELVATITSGGRTYYADSVKGRFTISRDNAKNTVYLQMNSLKPEDTAVYYCAAAGKGRYHFRSTMDYWGQGTQVTVSS	high polyreactivity
QVQLVESGGGLVQAGGSLRLSCAASGRTFNIYAMGWYRQEPGKERELVAAITNNGGRTYYADSVKGRFTISRDNAKNTVYLQMNSLKPEDTAVYYCAAVSGRSYDKYYYWGQGTQVTVSS	high polyreactivity
QVQLVESGGGLVQAGGSLRLSCAASGITFRYYAMGWYRQAPGKERELVATISSSGARTYYADSVKGRFTISRDNAKNTVYFQINSLKPEDTAVYYCNAVTFTLHSQPYDYWGQGTQVTVSS	high polyreactivity
QVQLVESGGGLVQAGGSLRLSCAASGSIFSGNAMGWYRQAPGKERELVAAITSSGGSTYYADSVKGRFTISRDNAKNTVYLQMNSLKPEDTAVYYCAKDYYSKHFPIYDYWGQGTQVTVSS	low polyreactivity
QVQLVESGRGLVQAGGSLRLSCAASGRIFSVNTMGWYRQAPGKERELVAGITGGGSTNYADSVKGRFTISRDNAKNTVYLQMNSLKPEDTAVYYCAAGWRSGFDYWGQGTQVTVSS	high polyreactivity
QVQLVESGGGLVQAGGSLRLSCAASGITFSGYVMGWYLQAPGKERELVAAISRSGGSTYYADSVKGRYTISRDNAKNTVYLQMNSLKPEDTAVYYCATASRTSRTGWAGYFWGQGTQVTVSS	high polyreactivity
QVQLVESGGGLVQAGGRLRLSCAASGSIFDYNGMGWYRQAPGKERELVATITLSTARTYYADSVKGRFTISRDNAKNTVYLQMNSLKPEDTAVYYCATRYPKFRRRNYWGQGTQVTVSS	high polyreactivity
QVQLVESGGGLVQAGGSLRLSCAASGNIFYNGMGWYRQAPGKERELVAAIRGSGGRTYADSVKGRFTISRDNAKNTVYLQMNSLKPEDTAVYYCATRRWYAYGVYYWGQGTQVTVSS	high polyreactivity
